Measured values published in PMC4092090, “Investigation of a MMP-2 Activity-Dependent Anchoring Probe for Nuclear Imaging of Cancer” (PLoS ONE, 2014).

Columns and labels:
[1] = type: physicochemical; settings: pH 7.4
Experimental: The experimental determination of probe partition coefficients (log P values) was performed in 1-octanol and 0.02 M phosphate buffer pH 7.4 where the two phases were pre-saturated with each other. 1-Octanol (200 µl) and phosphate buffer (200 µl) were pipetted into LoBind Eppendorf tubes containing 0.37 MBq of probes. The tube was vortexed for 10 seconds, and centrifuged (5 min, 4000×g). Aliquots (50 µl) from the 1-octanol and buffer phases were transferred into two test tubes for radioactivity counting with a NaI well-type scintillation counter (1470 WIZARD, Perkin Elmer, Kanagawa, Japan). The partition coefficient was calculated using the equation P = (counts/µl in 1-octanol)/(counts/µl in buffer).

[2] = test system: HT1080 tumor bearing mice; parameters: species or system mouse (Balb/c nu-nu); settings: mouse, in vivo, iv
Experimental: (§1) […]3000 and […] (37 kBq, 100 μl in PBS including 3% bovine serum albumin and 0.1% Tween 80) were injected intravenously into the tail vein of tumor bearing mice. The mice were sacrificed at various post-injection time points (n = 3 for each time point), and the organs of interest including the tumor tissues were collected for determination of the weights. The radioactivity of each sample was measured with a NaI well-type scintillation counter. From fitting to the two phase decay curves for blood radioactivity data analyzed by GraphPad Prism 6 (GraphPad Software, San Diego, CA), whole body pharmacokinetic parameters such as blood half-lives, distribution volume, mean residence time and total clearance were calculated for each of the probes and the values compared. Simple pharmacokinetic analysis using a single tissue compartment model was applied to the biodistribution data to calculate rate constants (K1 and k2) for radioactivity transfer from blood to tumor and clearance from tumor to blood by PMOD version 3.2. In addition, MDAP3000 (7.4 MBq in 200 μl) was injected intravenously into the tail vein of tumor bearing mice for metabolite analysis in tumors excised 3, 6, and 24 hr post injection (n = 2 each). Tumor homogenates were prepared on ice and insoluble material was removed by centrifugation after methanol treatment. The resulting supernatant was analyzed by RP-HPLC.

[3] = test system: HT1080 tumor xenograft; parameters: species or system mouse (Balb/c nu-nu); settings: mouse, in vivo
Experimental: as §1

[4] = Effective dose estimation (OLINDA); settings: estimated from mouse biodistribution data (non-decay-corrected time radioactivity curves) with OLINDA
From the text: The effective dose of MDAP3000 was estimated using the area under the non-decay-corrected time radioactivity curves generated from the biodistribution data for each organ with the standard quantitation platform included in Organ Level Internal Dose Assessment software (OLINDA, Vanderbilt University).

Q: Which “log P (partition coefficient)” value [1] does the source give for “Palmitoyl-Dap(p-SCN-Bn-DTPA-^111In)-10-Adc-Gly-Pro-Leu-Gly-Val-Arg-Gly-Lys(ivDde)-PEG1000 [MDAP1000]” here?
A: The value was −0.56±0.13.

Q: What about the “Blood half-life, Fast” value [2] of the same substance?
A: Its value is 4.0×10 min.

Q: And the “Blood half-life, Slow” value [2]?
A: Its value is 43.3 h.

Q: And the “Clearance (total clearance)” value [2]?
A: The value was 0.0083 mL/min.

Q: What about the Distribution volume [2] of the same substance?
A: Its Distribution volume is 1.71 mL.

Q: What about the Mean residence time [2] of the same substance?
A: Its Mean residence time is 210 min.

Q: What about the “K1, rate constant for transfer from blood to tumor, Mean” value ([3]; iv) of the same substance?
A: Its value is 0.00071 mL/g/min.

Q: What about the “k2, rate constant for clearance from tumor to blood, Mean” value ([3]; iv) of the same substance?
A: The value was 0.0011 min⁻¹.

Q: Which “log P (partition coefficient)” value [1] does the source give for “Palmitoyl-Dap(p-SCN-Bn-DTPA-^111In)-10-Adc-Gly-Pro-Leu-Gly-Val-Arg-Gly-Lys(ivDde)-PEG3000 [MDAP3000]” here?
A: The value was −0.95±0.12.

Q: And the “Blood half-life, Fast” value [2]?
A: The value was 5.6×10 min.

Q: What about the “Blood half-life, Slow” value [2] of the same substance?
A: The value was 7.17 h.

Q: What about the “Clearance (total clearance)” value [2] of the same substance?
A: Its value is 0.0079 mL/min.

Q: And the Distribution volume [2]?
A: Its Distribution volume is 1.94 mL.

Q: What about the Mean residence time [2] of the same substance?
A: The Mean residence time was 250 min.

Q: What about the “Slower washout rate from the tumor (k2) compared to MDAPCV” value [3] of the same substance?
A: The value was “approximately seven-fold”.

Q: What about the “K1, rate constant for transfer from blood to tumor, Mean” value ([3]; iv) of the same substance?
A: Its value is 0.0013 mL/g/min.

Q: And the Effective dose [4]?
A: The Effective dose was 5.08×10^−2 mSv/MBq.
